{
  "source": "patent US20240049668A1",
  "about": "(VILMORIN AND CIE, published 2024)",
  "data": [
    {"target": "T1, Movement Protein of ToBRFV (Tomato Brown Rugose Fruit Virus …, UniProt A0A0S2SZW1 1-266)", "T1 sequence": "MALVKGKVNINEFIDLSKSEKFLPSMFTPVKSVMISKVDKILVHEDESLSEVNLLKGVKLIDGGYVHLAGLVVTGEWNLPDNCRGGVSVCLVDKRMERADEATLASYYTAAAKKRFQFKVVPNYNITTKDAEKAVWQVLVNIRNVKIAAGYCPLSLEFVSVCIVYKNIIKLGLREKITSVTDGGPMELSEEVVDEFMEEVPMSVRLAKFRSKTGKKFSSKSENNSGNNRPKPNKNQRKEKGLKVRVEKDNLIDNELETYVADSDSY", "assay": "cell-based or functional assay", "units": {"HR when expressed with MP Rugose": "HR scale 0-4"}, "values": [
      {"binder": "TM-2-2 variant pJL 468_A (848 A) (receptor) MAEILLTSVINKSVEIAGNLLIQEGKRLYWLKEDIDWLQREMRHIRSYVDNAKAKEAGGDSRVKNLLKDIQELAGDVEDLLDDFLPKIQQSNKFNYCLKRSSFADEFAMEIEKIKRRVVDIDRIRKTYNIIDTDNNNDDCVLLDRRRLFLHADETEIIGLDDDFNMLQAKLLNQDLHYGVVSIVGMPGLGKTTLAKKLYRLIRDQFECSGLVYVSQQPRASEILLDIAKQIGLTEQKMKENLEDNLRSLLKIKRYVILLDDIWDVEIWDDLKLVLPECDSKVGSRMIITSRNSNVGRYIGGESSLHALQPLESEKSFELFTKKIFNFDDNNSWANASPDLVNIGRNIVGRCGGIPLAIVVTAGMLRARERTEHAWNRVLESMGHKVQDGCAKVLALSYNDLPIASRPCFLYFGLYPEDHEIRAFDLINMWIAEKFIVVNSGNRREAEDLAEDVLNDLVSRNLIQLAKRTYNGRISSCRIHDLLHSLCVDLAKESNFFHTAHDAFGDPGNVARLRRITFYSDNVMIEFFRSNPKLEKLRVLFCFAKDPSIFSHMAYFDFKLLHTLVVVMSQSFQAYVTIPSKFGNMTCLRYLRLEGNICGKLPNSIVKLTRLETIDIDRRSLIQPPSGVWESKHLRHLCYRDYGQACNSCFSISSFYPNIYSLHPNNLQTLMWIPDKFFEPRLLHRLINLRKLGILGVSNSTVKMLSIFSPVLKALEVLKLSFSSDPSEQIKLSSYPHIAKLHLNVNRTMALNSQSFPPNLIKLTLAYFSVDRYILAVLKTFPKLRKLKMFICKYNEEKMDLSGEANGYSFPQLEVLHIHSPNGLSEVTCTDDVSMPKLKKLLLTGFHARISLSERLKKLSK", "HR when expressed with MP Rugose": "< 1"},
      {"binder": "TM-2-2 variant pJL 468_E (848 E) (receptor) MAEILLTSVINKSVEIAGNLLIQEGKRLYWLKEDIDWLQREMRHIRSYVDNAKAKEAGGDSRVKNLLKDIQELAGDVEDLLDDFLPKIQQSNKFNYCLKRSSFADEFAMEIEKIKRRVVDIDRIRKTYNIIDTDNNNDDCVLLDRRRLFLHADETEIIGLDDDFNMLQAKLLNQDLHYGVVSIVGMPGLGKTTLAKKLYRLIRDQFECSGLVYVSQQPRASEILLDIAKQIGLTEQKMKENLEDNLRSLLKIKRYVILLDDIWDVEIWDDLKLVLPECDSKVGSRMIITSRNSNVGRYIGGESSLHALQPLESEKSFELFTKKIFNFDDNNSWANASPDLVNIGRNIVGRCGGIPLAIVVTAGMLRARERTEHAWNRVLESMGHKVQDGCAKVLALSYNDLPIASRPCFLYFGLYPEDHEIRAFDLINMWIAEKFIVVNSGNRREAEDLAEDVLNDLVSRNLIQLAKRTYNGRISSCRIHDLLHSLCVDLAKESNFFHTAHDAFGDPGNVARLRRITFYSDNVMIEFFRSNPKLEKLRVLFCFAKDPSIFSHMAYFDFKLLHTLVVVMSQSFQAYVTIPSKFGNMTCLRYLRLEGNICGKLPNSIVKLTRLETIDIDRRSLIQPPSGVWESKHLRHLCYRDYGQACNSCFSISSFYPNIYSLHPNNLQTLMWIPDKFFEPRLLHRLINLRKLGILGVSNSTVKMLSIFSPVLKALEVLKLSFSSDPSEQIKLSSYPHIAKLHLNVNRTMALNSQSFPPNLIKLTLAYFSVDRYILAVLKTFPKLRKLKMFICKYNEEKMDLSGEANGYSFPQLEVLHIHSPNGLSEVTCTDDVSMPKLKKLLLTGFHERISLSERLKKLSK", "HR when expressed with MP Rugose": "< 1"},
      {"binder": "TM-2-2 variant pJL 468_D (848 D) (receptor) MAEILLTSVINKSVEIAGNLLIQEGKRLYWLKEDIDWLQREMRHIRSYVDNAKAKEAGGDSRVKNLLKDIQELAGDVEDLLDDFLPKIQQSNKFNYCLKRSSFADEFAMEIEKIKRRVVDIDRIRKTYNIIDTDNNNDDCVLLDRRRLFLHADETEIIGLDDDFNMLQAKLLNQDLHYGVVSIVGMPGLGKTTLAKKLYRLIRDQFECSGLVYVSQQPRASEILLDIAKQIGLTEQKMKENLEDNLRSLLKIKRYVILLDDIWDVEIWDDLKLVLPECDSKVGSRMIITSRNSNVGRYIGGESSLHALQPLESEKSFELFTKKIFNFDDNNSWANASPDLVNIGRNIVGRCGGIPLAIVVTAGMLRARERTEHAWNRVLESMGHKVQDGCAKVLALSYNDLPIASRPCFLYFGLYPEDHEIRAFDLINMWIAEKFIVVNSGNRREAEDLAEDVLNDLVSRNLIQLAKRTYNGRISSCRIHDLLHSLCVDLAKESNFFHTAHDAFGDPGNVARLRRITFYSDNVMIEFFRSNPKLEKLRVLFCFAKDPSIFSHMAYFDFKLLHTLVVVMSQSFQAYVTIPSKFGNMTCLRYLRLEGNICGKLPNSIVKLTRLETIDIDRRSLIQPPSGVWESKHLRHLCYRDYGQACNSCFSISSFYPNIYSLHPNNLQTLMWIPDKFFEPRLLHRLINLRKLGILGVSNSTVKMLSIFSPVLKALEVLKLSFSSDPSEQIKLSSYPHIAKLHLNVNRTMALNSQSFPPNLIKLTLAYFSVDRYILAVLKTFPKLRKLKMFICKYNEEKMDLSGEANGYSFPQLEVLHIHSPNGLSEVTCTDDVSMPKLKKLLLTGFHDRISLSERLKKLSK", "HR when expressed with MP Rugose": "< 1"},
      {"binder": "TM-2-2 variant pJL 468_H (848 H) (receptor) MAEILLTSVINKSVEIAGNLLIQEGKRLYWLKEDIDWLQREMRHIRSYVDNAKAKEAGGDSRVKNLLKDIQELAGDVEDLLDDFLPKIQQSNKFNYCLKRSSFADEFAMEIEKIKRRVVDIDRIRKTYNIIDTDNNNDDCVLLDRRRLFLHADETEIIGLDDDFNMLQAKLLNQDLHYGVVSIVGMPGLGKTTLAKKLYRLIRDQFECSGLVYVSQQPRASEILLDIAKQIGLTEQKMKENLEDNLRSLLKIKRYVILLDDIWDVEIWDDLKLVLPECDSKVGSRMIITSRNSNVGRYIGGESSLHALQPLESEKSFELFTKKIFNFDDNNSWANASPDLVNIGRNIVGRCGGIPLAIVVTAGMLRARERTEHAWNRVLESMGHKVQDGCAKVLALSYNDLPIASRPCFLYFGLYPEDHEIRAFDLINMWIAEKFIVVNSGNRREAEDLAEDVLNDLVSRNLIQLAKRTYNGRISSCRIHDLLHSLCVDLAKESNFFHTAHDAFGDPGNVARLRRITFYSDNVMIEFFRSNPKLEKLRVLFCFAKDPSIFSHMAYFDFKLLHTLVVVMSQSFQAYVTIPSKFGNMTCLRYLRLEGNICGKLPNSIVKLTRLETIDIDRRSLIQPPSGVWESKHLRHLCYRDYGQACNSCFSISSFYPNIYSLHPNNLQTLMWIPDKFFEPRLLHRLINLRKLGILGVSNSTVKMLSIFSPVLKALEVLKLSFSSDPSEQIKLSSYPHIAKLHLNVNRTMALNSQSFPPNLIKLTLAYFSVDRYILAVLKTFPKLRKLKMFICKYNEEKMDLSGEANGYSFPQLEVLHIHSPNGLSEVTCTDDVSMPKLKKLLLTGFHHRISLSERLKKLSK", "HR when expressed with MP Rugose": "< 1"},
      {"binder": "TM-2-2 variant pJL 468_K (848 K) (receptor) MAEILLTSVINKSVEIAGNLLIQEGKRLYWLKEDIDWLQREMRHIRSYVDNAKAKEAGGDSRVKNLLKDIQELAGDVEDLLDDFLPKIQQSNKFNYCLKRSSFADEFAMEIEKIKRRVVDIDRIRKTYNIIDTDNNNDDCVLLDRRRLFLHADETEIIGLDDDFNMLQAKLLNQDLHYGVVSIVGMPGLGKTTLAKKLYRLIRDQFECSGLVYVSQQPRASEILLDIAKQIGLTEQKMKENLEDNLRSLLKIKRYVILLDDIWDVEIWDDLKLVLPECDSKVGSRMIITSRNSNVGRYIGGESSLHALQPLESEKSFELFTKKIFNFDDNNSWANASPDLVNIGRNIVGRCGGIPLAIVVTAGMLRARERTEHAWNRVLESMGHKVQDGCAKVLALSYNDLPIASRPCFLYFGLYPEDHEIRAFDLINMWIAEKFIVVNSGNRREAEDLAEDVLNDLVSRNLIQLAKRTYNGRISSCRIHDLLHSLCVDLAKESNFFHTAHDAFGDPGNVARLRRITFYSDNVMIEFFRSNPKLEKLRVLFCFAKDPSIFSHMAYFDFKLLHTLVVVMSQSFQAYVTIPSKFGNMTCLRYLRLEGNICGKLPNSIVKLTRLETIDIDRRSLIQPPSGVWESKHLRHLCYRDYGQACNSCFSISSFYPNIYSLHPNNLQTLMWIPDKFFEPRLLHRLINLRKLGILGVSNSTVKMLSIFSPVLKALEVLKLSFSSDPSEQIKLSSYPHIAKLHLNVNRTMALNSQSFPPNLIKLTLAYFSVDRYILAVLKTFPKLRKLKMFICKYNEEKMDLSGEANGYSFPQLEVLHIHSPNGLSEVTCTDDVSMPKLKKLLLTGFHKRISLSERLKKLSK", "HR when expressed with MP Rugose": "~1"},
      {"binder": "TM-2-2 variant pJL 468_L (848 L) (receptor) MAEILLTSVINKSVEIAGNLLIQEGKRLYWLKEDIDWLQREMRHIRSYVDNAKAKEAGGDSRVKNLLKDIQELAGDVEDLLDDFLPKIQQSNKFNYCLKRSSFADEFAMEIEKIKRRVVDIDRIRKTYNIIDTDNNNDDCVLLDRRRLFLHADETEIIGLDDDFNMLQAKLLNQDLHYGVVSIVGMPGLGKTTLAKKLYRLIRDQFECSGLVYVSQQPRASEILLDIAKQIGLTEQKMKENLEDNLRSLLKIKRYVILLDDIWDVEIWDDLKLVLPECDSKVGSRMIITSRNSNVGRYIGGESSLHALQPLESEKSFELFTKKIFNFDDNNSWANASPDLVNIGRNIVGRCGGIPLAIVVTAGMLRARERTEHAWNRVLESMGHKVQDGCAKVLALSYNDLPIASRPCFLYFGLYPEDHEIRAFDLINMWIAEKFIVVNSGNRREAEDLAEDVLNDLVSRNLIQLAKRTYNGRISSCRIHDLLHSLCVDLAKESNFFHTAHDAFGDPGNVARLRRITFYSDNVMIEFFRSNPKLEKLRVLFCFAKDPSIFSHMAYFDFKLLHTLVVVMSQSFQAYVTIPSKFGNMTCLRYLRLEGNICGKLPNSIVKLTRLETIDIDRRSLIQPPSGVWESKHLRHLCYRDYGQACNSCFSISSFYPNIYSLHPNNLQTLMWIPDKFFEPRLLHRLINLRKLGILGVSNSTVKMLSIFSPVLKALEVLKLSFSSDPSEQIKLSSYPHIAKLHLNVNRTMALNSQSFPPNLIKLTLAYFSVDRYILAVLKTFPKLRKLKMFICKYNEEKMDLSGEANGYSFPQLEVLHIHSPNGLSEVTCTDDVSMPKLKKLLLTGFHLRISLSERLKKLSK", "HR when expressed with MP Rugose": "< 1"}
    ]}
  ]
}
